Assay results published in patent US20030208060A1.

What was measured:
[1] = biological target: T1, apoE- and lipoprotein lipase-independent TGRLP receptor (apoB48R) on the surface of THP-1 monocyte-macrophages (human) (UniProt Q0VD83); test: competition with 125I-HTG-VLDL1 for THP-1 macrophages; set as 100% by definition
T1 sequence: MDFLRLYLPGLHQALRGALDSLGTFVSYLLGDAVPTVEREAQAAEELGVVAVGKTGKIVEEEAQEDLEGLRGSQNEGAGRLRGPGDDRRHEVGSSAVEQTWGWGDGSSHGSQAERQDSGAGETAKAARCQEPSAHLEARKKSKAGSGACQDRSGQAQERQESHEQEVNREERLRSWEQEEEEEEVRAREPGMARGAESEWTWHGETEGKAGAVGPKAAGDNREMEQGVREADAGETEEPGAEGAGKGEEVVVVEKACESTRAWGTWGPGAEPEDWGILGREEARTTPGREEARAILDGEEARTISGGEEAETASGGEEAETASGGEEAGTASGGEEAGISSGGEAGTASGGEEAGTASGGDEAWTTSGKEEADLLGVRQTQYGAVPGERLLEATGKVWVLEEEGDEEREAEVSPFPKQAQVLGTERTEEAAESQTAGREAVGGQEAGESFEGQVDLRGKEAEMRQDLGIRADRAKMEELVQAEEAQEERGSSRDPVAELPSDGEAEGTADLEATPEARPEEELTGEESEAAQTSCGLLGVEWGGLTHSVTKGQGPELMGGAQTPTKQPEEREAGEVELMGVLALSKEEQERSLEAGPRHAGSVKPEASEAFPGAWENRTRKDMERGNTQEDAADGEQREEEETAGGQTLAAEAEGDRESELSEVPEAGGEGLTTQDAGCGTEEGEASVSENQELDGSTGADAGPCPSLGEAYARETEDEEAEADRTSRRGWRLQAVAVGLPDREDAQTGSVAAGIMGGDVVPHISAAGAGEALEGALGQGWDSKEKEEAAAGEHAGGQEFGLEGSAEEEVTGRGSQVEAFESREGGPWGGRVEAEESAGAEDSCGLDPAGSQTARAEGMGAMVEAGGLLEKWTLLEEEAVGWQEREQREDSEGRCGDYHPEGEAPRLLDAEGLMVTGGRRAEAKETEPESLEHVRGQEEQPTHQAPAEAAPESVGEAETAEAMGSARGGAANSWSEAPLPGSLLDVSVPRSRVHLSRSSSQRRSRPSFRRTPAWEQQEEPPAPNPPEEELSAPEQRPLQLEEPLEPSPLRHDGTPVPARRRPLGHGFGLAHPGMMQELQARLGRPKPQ

[2] = biological target: T1, apoE- and lipoprotein lipase-independent TGRLP receptor (apoB48R) on the surface of THP-1 monocyte-macrophages (human); test: competition with 125I-tryp-VLDL2 for THP-1 macrophages; set as 100% by definition
[3] = biological target: T1, apoE- and lipoprotein lipase-independent TGRLP receptor (apoB48R) on the surface of THP-1 monocyte-macrophages (human); test: competition with 125I-tryp-VLDL1 for THP-1 macrophages; set as 100% by definition
[4] = biological target: hypertriglyceridemic very low density lipoprotein Sf100-400 (HTG-VLDL) (human) (UniProt P04114); test: competitive ligand blot: binding of biotinylated HTG-VLDL to MBP200 and MBP235, control IgG 400 µg/ml
[5] = biological target: T1, apoE- and lipoprotein lipase-independent TGRLP receptor (apoB48R) on the surface of THP-1 monocyte-macrophages (human); test: specific binding of the 125I-lipoprotein to THP-1 macrophages, 4 °C
[6] = biological target: T1, apoE- and lipoprotein lipase-independent TGRLP receptor (apoB48R) on the surface of THP-1 monocyte-macrophages (human); test: competition with 125I-tryp-VLDL1 for THP-1 macrophages, 4 °C, lactoferrin 100 µg/ml
[7] = biological target: T1, apoE- and lipoprotein lipase-independent TGRLP receptor (apoB48R) on the surface of THP-1 monocyte-macrophages (human); test: competition with 125I-HTG-VLDL1 for THP-1 macrophages, 4 °C, lactoferrin 500 µg/ml
[8] = biological target: MBP235 (membrane binding protein of ~235 kDa: MBP200 plus noncovalently bound subunit(s) of ~35 kDa) (human); test: quantitative ligand blot, Scatchard; conditions: scale: ng apo very low density lipoprotein/mg cell protein
[9] = biological target: MBP200 (membrane binding protein of ~200 kDa; human monocyte-macrophage apoB48 receptor, apoB48R) (human) (UniProt Q0VD83); test: quantitative ligand blot, Scatchard; conditions: scale: ng apo very low density lipoprotein/mg cell protein
[10] = biological target: MBP200R (reduced, ligand-binding form generated from MBP200 and MBP235 by 2-mercaptoethanol) (human) (UniProt Q0VD83); test: quantitative ligand blot after reduction, Scatchard; parameters: Bmax: unit not given here
[11] = biological target: LDL receptor of cultured human skin fibroblasts (upregulated) (human) (UniProt P01130); test: binding of 125I-HTG-VLDL at 5 µg/ml to fibroblasts with induced LDL receptor, 4 °C
[12] = biological target: T1, apoE- and lipoprotein lipase-independent TGRLP receptor (apoB48R) on the surface of THP-1 monocyte-macrophages (human); test: binding of 125I-HTG-VLDL at 5 µg/ml to THP-1 macrophages, 4 °C

Sequence of lactoferrin (P02788 20-710): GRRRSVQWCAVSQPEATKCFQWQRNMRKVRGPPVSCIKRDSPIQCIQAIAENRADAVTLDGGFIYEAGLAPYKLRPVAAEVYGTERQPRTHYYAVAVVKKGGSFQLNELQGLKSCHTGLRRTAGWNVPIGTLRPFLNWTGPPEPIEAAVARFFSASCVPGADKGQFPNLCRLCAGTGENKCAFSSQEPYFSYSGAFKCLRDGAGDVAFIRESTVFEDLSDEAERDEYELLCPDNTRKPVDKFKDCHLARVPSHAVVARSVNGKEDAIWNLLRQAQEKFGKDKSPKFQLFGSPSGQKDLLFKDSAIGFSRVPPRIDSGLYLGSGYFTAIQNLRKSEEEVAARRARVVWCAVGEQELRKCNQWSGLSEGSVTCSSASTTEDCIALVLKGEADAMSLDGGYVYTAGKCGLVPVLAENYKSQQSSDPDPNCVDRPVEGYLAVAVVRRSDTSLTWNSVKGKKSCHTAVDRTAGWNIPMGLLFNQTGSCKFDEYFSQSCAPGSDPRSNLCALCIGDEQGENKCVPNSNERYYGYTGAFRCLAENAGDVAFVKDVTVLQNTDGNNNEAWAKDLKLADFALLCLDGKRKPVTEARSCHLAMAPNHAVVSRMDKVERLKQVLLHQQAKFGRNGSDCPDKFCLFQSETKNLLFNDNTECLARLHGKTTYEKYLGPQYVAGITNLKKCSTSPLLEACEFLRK
Sequence of LDL receptor of cultured human skin fibroblasts (upregulated) (human) (P01130 22-860): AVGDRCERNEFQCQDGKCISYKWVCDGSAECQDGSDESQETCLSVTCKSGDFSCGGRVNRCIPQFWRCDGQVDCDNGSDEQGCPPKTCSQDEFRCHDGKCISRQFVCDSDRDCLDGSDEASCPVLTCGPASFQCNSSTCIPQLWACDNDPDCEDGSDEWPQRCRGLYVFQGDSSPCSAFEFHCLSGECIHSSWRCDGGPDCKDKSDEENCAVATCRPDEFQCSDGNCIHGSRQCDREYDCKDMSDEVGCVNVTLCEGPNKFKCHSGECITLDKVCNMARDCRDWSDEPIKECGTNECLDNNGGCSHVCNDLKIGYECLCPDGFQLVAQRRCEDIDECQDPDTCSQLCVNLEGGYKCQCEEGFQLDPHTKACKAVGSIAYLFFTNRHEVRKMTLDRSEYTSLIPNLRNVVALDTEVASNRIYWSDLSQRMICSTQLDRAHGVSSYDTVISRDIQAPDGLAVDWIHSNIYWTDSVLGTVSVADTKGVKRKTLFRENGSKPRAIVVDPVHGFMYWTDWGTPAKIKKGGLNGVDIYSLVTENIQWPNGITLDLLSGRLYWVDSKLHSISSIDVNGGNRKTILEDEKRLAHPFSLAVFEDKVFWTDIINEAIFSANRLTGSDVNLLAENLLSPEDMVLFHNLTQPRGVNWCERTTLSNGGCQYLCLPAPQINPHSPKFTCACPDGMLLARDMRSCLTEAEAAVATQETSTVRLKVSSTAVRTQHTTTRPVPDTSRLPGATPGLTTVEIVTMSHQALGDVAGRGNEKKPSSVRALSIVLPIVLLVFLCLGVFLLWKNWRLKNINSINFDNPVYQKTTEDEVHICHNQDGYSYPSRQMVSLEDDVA

Unlabeled VLDL (20x), P04114 28-4563
Percent Inhibition [1]: 100%
Percent Inhibition [2]: 100%
Percent Inhibition [3]: 100%

preimmune IgG (rabbit 1325) (antibody)
percent of binding blocked [4]: 25%

trypsinized VLDL Sf100-400, devoid of apoE (tryp-VLDL) (from UniProt P04114 28-4563)
specific binding (0% inhibition) (fmol/mg cell protein) [5]: 140

trypsinized VLDL2 (tryp-VLDL2) (from UniProt P04114 28-4563)
specific binding (0% inhibition) (fmol/mg cell protein) [5]: 20

lactoferrin
Percent Inhibition [6]: 4%
Percent Inhibition [7]: 5%

hypertriglyceridemic very low density lipoprotein Sf100-400 (HTG-VLDL) (from UniProt P04114 28-4563; P04114 28-2179; P02649 19-317; P02656 21-99)
Bmax [8]: 66
Bmax [9]: 96
Bmax [10]: 160
Kd [10]: 1.4 µg/mL
specific binding activity (ng/mg fibroblast cell protein) [11]: 237
specific binding activity (ng/mg THP-1 cell protein) [12]: 24
